From patent US20150147274A1 (CANCER RESEARCH TECHNOLOGY, published 2015)
Blank lines part the entries; values can stand above or below the molecule they belong to.

How the values were obtained:
[1] = molecular target: human MET (c-Met) on cells (SKOV-3, BxPC3) (human) (UniProt P08581); test: cell-based or functional assay
[2] = molecular target: MET928 (cMET protein derived from construct 25-928) (human) (UniProt P08581); test: Biacore SPR, MET928-coated surface, 1:1 kinetic analysis
[3] = molecular target: T1, human MET (c-Met) on cells (SKOV-3, BxPC3) (human, UniProt P08581 25-1390); test: cell-based or functional assay
T1 sequence (P08581 25-1390): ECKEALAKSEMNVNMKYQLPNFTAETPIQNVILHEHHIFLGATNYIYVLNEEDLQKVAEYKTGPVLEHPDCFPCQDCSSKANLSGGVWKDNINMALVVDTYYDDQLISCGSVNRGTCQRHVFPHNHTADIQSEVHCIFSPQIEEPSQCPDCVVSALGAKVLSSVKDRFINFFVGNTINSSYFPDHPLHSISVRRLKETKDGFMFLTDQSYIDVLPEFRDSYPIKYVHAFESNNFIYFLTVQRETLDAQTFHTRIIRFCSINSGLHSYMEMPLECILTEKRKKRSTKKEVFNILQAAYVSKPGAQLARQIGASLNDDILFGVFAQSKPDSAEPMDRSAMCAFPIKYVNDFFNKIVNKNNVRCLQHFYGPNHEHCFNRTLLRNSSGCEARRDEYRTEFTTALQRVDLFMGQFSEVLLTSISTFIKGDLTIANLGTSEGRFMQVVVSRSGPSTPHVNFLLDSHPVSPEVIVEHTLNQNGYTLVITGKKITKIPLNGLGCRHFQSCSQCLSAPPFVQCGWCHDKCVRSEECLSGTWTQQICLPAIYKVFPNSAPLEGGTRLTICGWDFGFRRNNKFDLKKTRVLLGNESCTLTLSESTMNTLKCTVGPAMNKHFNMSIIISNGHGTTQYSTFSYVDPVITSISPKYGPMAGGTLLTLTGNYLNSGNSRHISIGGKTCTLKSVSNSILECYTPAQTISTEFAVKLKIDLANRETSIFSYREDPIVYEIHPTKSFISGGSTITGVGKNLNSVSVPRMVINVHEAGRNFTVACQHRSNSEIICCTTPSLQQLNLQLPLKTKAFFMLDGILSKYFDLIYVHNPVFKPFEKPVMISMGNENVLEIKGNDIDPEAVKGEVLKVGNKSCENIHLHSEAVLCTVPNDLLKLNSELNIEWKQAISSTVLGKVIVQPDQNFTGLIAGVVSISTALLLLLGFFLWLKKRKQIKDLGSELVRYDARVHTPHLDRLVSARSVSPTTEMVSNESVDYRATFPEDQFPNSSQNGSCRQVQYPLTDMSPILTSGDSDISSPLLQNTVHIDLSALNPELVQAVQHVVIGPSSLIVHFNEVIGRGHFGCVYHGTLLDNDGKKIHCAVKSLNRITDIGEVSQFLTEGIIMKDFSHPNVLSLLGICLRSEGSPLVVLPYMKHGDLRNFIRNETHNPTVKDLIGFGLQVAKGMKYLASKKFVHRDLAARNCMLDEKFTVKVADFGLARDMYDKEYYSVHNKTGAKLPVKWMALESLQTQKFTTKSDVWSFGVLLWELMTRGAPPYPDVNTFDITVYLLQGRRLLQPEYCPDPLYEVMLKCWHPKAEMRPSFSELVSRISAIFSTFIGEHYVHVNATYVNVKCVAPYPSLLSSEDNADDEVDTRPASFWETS

[4] = molecular target: T2, MET928 (cMET protein derived from construct 25-928) (human, UniProt P08581 25-928); test: Biacore SPR, MET-928 on chip, scFv format
T2 construct: MET ectodomain, residues 1-24 are the leader; produced in Lec 8 cells; background text says the ectodomain is furin-cleaved into alpha (25-307) and beta chains; biotinylated form used in selections; also called MET928 extracellular domain; Met extracellular domain
T2 sequence (P08581 25-928): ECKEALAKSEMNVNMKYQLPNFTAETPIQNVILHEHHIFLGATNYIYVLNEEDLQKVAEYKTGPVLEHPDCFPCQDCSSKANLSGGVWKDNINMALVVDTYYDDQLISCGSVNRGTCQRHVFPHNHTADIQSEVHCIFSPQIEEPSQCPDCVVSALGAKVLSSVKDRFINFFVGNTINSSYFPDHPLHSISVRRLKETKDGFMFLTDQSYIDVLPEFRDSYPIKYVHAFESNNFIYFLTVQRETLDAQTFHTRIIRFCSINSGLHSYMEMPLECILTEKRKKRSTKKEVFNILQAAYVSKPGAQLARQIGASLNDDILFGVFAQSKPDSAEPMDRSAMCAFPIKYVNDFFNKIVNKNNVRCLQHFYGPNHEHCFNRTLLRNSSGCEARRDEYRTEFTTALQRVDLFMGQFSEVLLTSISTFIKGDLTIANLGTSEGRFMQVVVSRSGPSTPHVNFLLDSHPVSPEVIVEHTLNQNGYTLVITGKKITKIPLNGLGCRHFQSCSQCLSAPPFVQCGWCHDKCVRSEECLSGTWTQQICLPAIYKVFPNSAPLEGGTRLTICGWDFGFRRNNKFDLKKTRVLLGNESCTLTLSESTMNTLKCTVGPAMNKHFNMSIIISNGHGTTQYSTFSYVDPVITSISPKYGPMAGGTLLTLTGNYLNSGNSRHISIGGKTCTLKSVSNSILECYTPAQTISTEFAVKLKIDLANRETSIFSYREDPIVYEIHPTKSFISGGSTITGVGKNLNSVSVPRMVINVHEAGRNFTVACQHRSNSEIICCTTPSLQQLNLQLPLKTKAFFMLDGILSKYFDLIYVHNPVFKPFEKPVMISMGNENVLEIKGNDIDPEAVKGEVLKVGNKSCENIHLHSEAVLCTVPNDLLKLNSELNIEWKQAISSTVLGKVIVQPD
Description: (§1) The binding characteristics of 7A2 and its derivatives were measured using a GE Healthcare Biacore biosensor.

[5] = molecular target: T2, MET928 (cMET protein derived from …); test: SPR (Biacore), CM5 chip coated with MET928
[6] = molecular target: T3, MET928.6H (hexahistine tagged MET928) (human, UniProt P08581 25-928); test: plate binding assay: 100 nM MET928.6H added to NK1-coated microplate, bound MET detected with anti-5xHis and DELFIA Eu-N1 anti-mouse IgG (time-resolved fluorescence) [right panel]
T3 construct: also called MET ectodomain; not shown: hexahistidine tag
T3 sequence (P08581 25-928): as above
Description: FAb at 5-500 nM (FIG. 8) was mixed with 100 nM MET928.6H (hexahistine tagged MET928) and the mixture incubated at room temperature for one hour, prior to addition of the MET928.6H/FAb mixture to microplates coated with HGF/SF or the fragment NK1 and a further one-hour incubation. Bound MET928.6H was then detected with anti-5xHis (Qiagen) followed by DELFIA® Eu-N1 rabbit anti-mouse-IgG, exposure to DELFIA® enhancement solution and quantitation by time-resolved fluorescence on a Fusion instrument (Perkin Elmer).

[7] = molecular target: T1, human MET (c-Met) on cells (SKOV-3, …); test: cell-based or functional assay; remark: listed apart in the source
[8] = molecular target: T2, MET928 (cMET protein derived from …); test: Biacore SPR, MET-928 on chip, Fab format
Description: as §1

[9] = molecular target: T2, MET928 (cMET protein derived from …); test: Biacore SPR, MET928-coated surface, 1:1 kinetic analysis
From the text: In FIG. 15, “hinged” His-tagged, IMAC-purified Fabs were used.

[10] = molecular target: T4, MET567 (MET extracellular domain aa 25-567) (human, UniProt P08581 25-567); test: analytical size exclusion chromatography (Superdex 200 10/300) [Cont.]
T4 construct: beta-propeller + cystine-rich domain
T4 sequence (P08581 25-567): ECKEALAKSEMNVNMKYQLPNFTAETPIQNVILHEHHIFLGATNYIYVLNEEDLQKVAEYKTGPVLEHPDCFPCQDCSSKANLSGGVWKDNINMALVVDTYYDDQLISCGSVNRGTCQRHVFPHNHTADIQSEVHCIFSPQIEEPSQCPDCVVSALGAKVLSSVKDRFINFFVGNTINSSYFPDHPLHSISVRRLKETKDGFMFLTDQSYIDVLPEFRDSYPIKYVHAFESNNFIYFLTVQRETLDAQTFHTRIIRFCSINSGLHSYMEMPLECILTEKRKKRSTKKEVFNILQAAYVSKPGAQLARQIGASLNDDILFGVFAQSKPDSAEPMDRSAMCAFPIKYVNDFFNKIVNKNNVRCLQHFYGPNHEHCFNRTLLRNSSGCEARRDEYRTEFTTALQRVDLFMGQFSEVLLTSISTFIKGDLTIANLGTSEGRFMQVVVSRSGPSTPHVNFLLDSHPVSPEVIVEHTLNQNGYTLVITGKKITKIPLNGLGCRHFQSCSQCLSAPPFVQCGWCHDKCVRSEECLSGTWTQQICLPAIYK
Description: Epitope location was analysed by analytical size exclusion chromatography. […] The mixtures were then centrifuged to remove any debris and analysed on a Superdex 200 10/300 size exclusion column (GE Life Sciences).

[11] = molecular target: T2, MET928 (cMET protein derived from …); test: Biacore SPR
[12] = molecular target: T2, MET928 (cMET protein derived from …); test: Biacore SPR, MET928-coated surface
From the text: Since scFv can multimerise, possibly complicating analysis, we also analysed the biological activity of monomeric 7A2 scFv. 8×His-tagged 7A2 scFv (Table 14) was expressed in P. pastoris induced with Methanol over 3 days. Conditioned media was concentrated using a Sartorius Slice Disposable (10 kD nominal molecular weight cut-off) and the scFv purified on a HisTrap column (GE Life Sciences). Monomeric 7A2 scFv (FIG. 11) was isolated by size exclusion using a Superdex 200 16/60 prep grade column (GE Life Sciences).

Chain of MET928 (cMET protein derived from construct 25-928) (human) (P08581 25-928): as the sequence (P08581 25-928) above
Chain of human MET (c-Met) on cells (SKOV-3, BxPC3) (human) (P08581 25-1390): as the sequence (P08581 25-1390) above

Molecule: 5D5 scFv
IC50 (nM), inhibition of HGF/SF-induced migration of SKOV-3 cells, Assay 1 [1]: 116 nM | IC50 (nM), inhibition of HGF/SF-induced migration of SKOV-3 cells, Assay 2 [1]: 83.6 nM | IC50 (nM), inhibition of HGF/SF-induced migration of SKOV-3 cells, Mean [1]: 99.6 nM

B4: 107_A07 Fab (tagless, native, i.e. not hinged) (Fab, V domains shown)
VH: QMQLVQSGAEVKKPGAPVKVSCKVSGYTFTDYYMHWVQQAPGKGLEWMGLVDPEDGETIYAEKFQGRVTITADTSTDTAYMELSSLRSEDTAVYYCATDATTPYWGMMWWGQGTLVTVSS
VL: DIQMTQSPSSLSASVGDRVTITCQASQDISNYLNWYQQKPGRAPKVLIYDASNLETGVPSRFSGSGSGTEFTLTISNLRPDDFATYYCQQGDSFPLTFGGGTKVEIKR
Kd [9]: 4.2 nM | koff [9]: 0.0075 s⁻¹ | kon [9]: 1.8e+06 M⁻¹ s⁻¹ | binding result [10]: no binding (tested: 6 µM Fab with 4 µM MET567)

B6: 110_A01 Fab (His/tri-FLAG tagged, hinged) (Fab, V domains shown)
VH: QMQLVQSGAEVKKPGAPVKVSCKVSGYTFTDYYMHWVQQAPGKGLEWMGLVDPEDGETIYAEKFQGRVTITADTSTDTAYMELSSLRSEDTAVYYCATDATTPYWFPYLWGQGTLVTVSS
VL: DIQMTQSPSSLSASVGDRVTITCQASQDISNYLNWYQQKPGRAPKVLIYDASNLETGVPSRFSGSGSGTEFTLTISNLRPDDFATYYCQQGDSFPLTFGGGTKVEIK
notes: Fab from pBIOCAM7-3F, hinged, hexahistidine and tri-FLAG tags on the heavy chain
IC50, inhibition of HGF/SF-induced migration of SKOV-3 cells, Assay 1 [7]: 9.6 nM | IC50, inhibition of HGF/SF-induced migration of SKOV-3 cells, Assay 2 [7]: 27 nM | IC50, inhibition of HGF/SF-induced migration of SKOV-3 cells, Assay 3 [7]: 2.6 nM | Mean IC50, inhibition of HGF/SF-induced migration of SKOV-3 cells [7]: 13.1 nM | Kd [8]: 1.23 nM | koff [8]: 0.00137 s⁻¹ | kon [8]: 1.12e+06 M⁻¹ s⁻¹

B7: monomeric 7A2 scFv (8xHis-tagged, expressed in P. pastoris) (scFv)
scFv: EAEAQMQLVQSGAEVKKPGAPVKVSCKVSGYTFTDYYMHWVQQAPGKGLEWMGLVDPEDGETIYAEKFQGRVTITADTSTDTAYMELSSLRSEDTAVYYCATDATTPYYGMDVWGQGTLVTVSSLEGGGGSGGGGSGGGASDIQMTQSPSSLSASVGDRVTITCQASQDISNYLNWYQQKPGRAPKVLIYDASNLETGVPSRFSGSGSGTEFTLTISNLRPDDFATYYCQQGDSFPLTFGGGTKVEIKRPRHHHHHHHH
notes: Monomer isolated by size exclusion chromatography
Kd [12]: 3.62 nM | koff [12]: 0.00212 s⁻¹ | kon [12]: 586000 M⁻¹ s⁻¹

Further lines, with some results ahead:

Fab concentration (nanomolar) giving 50% inhibition of HGF/SF-induced SKOV-3 migration, MEAN [1]: 101 nM | Fab concentration (nanomolar) giving 50% inhibition of HGF/SF-induced SKOV-3 migration, MEDIAN [1]: 91 nM | Kd [2]: 6.9 nM | koff [2]: 0.00081 s⁻¹ | kon [2]: 120000 M⁻¹ s⁻¹
Molecule: 5D5 Fab (His-tagged)

IC50 (nM), inhibition of HGF/SF-induced migration of SKOV-3 cells, Assay 1 [3]: 2.1 nM | IC50 (nM), inhibition of HGF/SF-induced migration of SKOV-3 cells, Assay 2 [3]: 2.5 nM | IC50 (nM), inhibition of HGF/SF-induced migration of SKOV-3 cells, Mean [3]: 2.3 nM | Kd [4]: 12.3 nM | koff [4]: 0.646 s⁻¹ | kon [4]: 5.25e+07 M⁻¹ s⁻¹
B1: 7A2 scFv (expressed in E. coli, 6xHis/tri-Flag tags) (scFv)
scFv: QMQLVQSGAEVKKPGAPVKVSCKVSGYTFTDYYMHWVQQAPGKGLEWMGLVDPEDGETIYAEKFQGRVTITADTSTDTAYMELSSLRSEDTAVYYCATDATTPYYGMDVWGQGTLVTVSSLEGGGGSGGGGSGGGASDIQMTQSPSSLSASVGDRVTITCQASQDISNYLNWYQQKPGRAPKVLIYDASNLETGVPSRFSGSGSGTEFTLTISNLRPDDFATYYCQQGDSFPLTFGGGTKVEIK
notes: also called 084-G02; antibody 7A2; not shown: 6xHis/tri-FLAG tags of pSANG10-3F

binding result [5]: binds | binding result [6]: binds
B2: NK1 fragment of HGF/SF (produced in Pichia pastoris) (ligand)
chain: EAEAYVEGQRKRRNTIHEFKKSAKTTLIKIDPALKIKTKKVNTADQCADRCTRNKGLPFTCKAFVFDKARKQCLWFPFNSMSSGVKKEFGHEFDLYENKDYIRNCIIGKGRSYKGTVSITKSGIKCQPWSSMIPHEHSFLPSSYRGKDLQENYCRNPRGEEGGPWCFTSNPEVRYEVCDIPQCSEVE
notes: The first two (EA) or four (EAEA) amino acids may be removed during processing; also called NK1.B1; NK1.B2

IC50, inhibition of HGF/SF-induced migration of SKOV-3 cells, Assay 1 [7]: 10.5 nM | Mean IC50, inhibition of HGF/SF-induced migration of SKOV-3 cells [7]: 10.5 nM | Kd [8]: 2.29 nM | koff [8]: 0.00192 s⁻¹ | kon [8]: 838000 M⁻¹ s⁻¹
B3: 107_A08 Fab (His/tri-FLAG tagged, hinged) (Fab, V domains shown)
VH: QMQLVQSGAEVKKPGAPVKVSCKVSGYTFTDYYMHWVQQAPGKGLEWMGLVDPEDGETIYAEKFQGRVTITADTSTDTAYMELSSLRSEDTAVYYCATDATTPYWGMVEWGQGTLVTVSS
VL: DIQMTQSPSSLSASVGDRVTITCQASQDISNYLNWYQQKPGRAPKVLIYDASNLETGVPSRFSGSGSGTEFTLTISNLRPDDFATYYCQQGDSFPLTFGGGTKVEIK
notes: as for B6

Kd [11]: 181 nM | koff [11]: 0.108 s⁻¹ | kon [11]: 597000 M⁻¹ s⁻¹
B5: 7A2 Fab (tagless, hinged) (Fab, V domains shown)
VH: QMQLVQSGAEVKKPGAPVKVSCKVSGYTFTDYYMHWVQQAPGKGLEWMGLVDPEDGETIYAEKFQGRVTITADTSTDTAYMELSSLRSEDTAVYYCATDATTPYYGMDVWGQGTLVTVSS
VL: DIQMTQSPSSLSASVGDRVTITCQASQDISNYLNWYQQKPGRAPKVLIYDASNLETGVPSRFSGSGSGTEFTLTISNLRPDDFATYYCQQGDSFPLTFGGGTKVEIKR
notes: Purified on KappaSelect; also called Tagless 7A2
binding result [10]: no binding (tested: 6 µM Fab with 4 µM MET567)
